Test results as given in US7968081B2, “Peptide for diagnosing, preventing and treating atherosclerosis and uses thereof” (Kyungpook National University Industry—Academic Cooperation …, priority 2007, dated 2011).
Ends that are not written are not given here. * marks the point of attachment. FITC = O=C1OC2(c3ccc(O)cc3Oc3cc(O)ccc32)c2ccc(NC(=S)*)cc21

Experiments:
[1] = test system: atherosclerotic plaque tissues; test: In vivo atherosclerotic targeting of fluorescent dye-conjugated peptide (fluorescence microscopy of frozen sections); settings: atherosclerosis-induced mice, circulation 15 min
Source text: C57BL/6 mice (Ldlr−/−) into which deficiency of a low-density lipoprotein (LDL) receptor was introduced by a genetic engineering technique were fed daily for 10 weeks with 3 g of high-cholesterol diet, thereby inducing atherosclerosis in animals. The high-cholesterol diet was a special animal feed containing 1.25% cholesterol, 15% fat and 0.5% cholate (Oriental Yeast Co., Japan).
Here, the peptide was synthesized by tagging an N-terminus of the peptide with FITC (fluorescein isothiocyanate) as a green fluorescent dye. The synthesized FITC-CRKRLDRNC peptide and a control peptide (FITC-NSSVDK) at final blood concentrations of 50 μM were injected into the atherosclerosis-induced mice via the left ventricle of animals, followed by circulation for 15 min. Thereafter, the aortae were removed from each mouse, and frozen sections were prepared, followed by Oil Red O (fat marker, Sigma-Aldrich, USA) staining or vWF (vascular endothelial cell marker, 1:5000 dilution, Abcam, USA) and Mac-3 (macrophage marker, 1:50 dilution, BD, USA) staining (Matter et al., Circulation Research, 95:1225-1233, 2004). In order to stain nuclei in tissues, a mounting medium containing a nuclear staining dye, 4′,6-diamidino-2-phenylindole (DAPI) (manufactured by Molecular Probe, USA) was treated on a slide, according to a conventional method known in the art, followed by fluorescence microscopic examination.

[2] = target: T1, IL-4R (Mus musculus, UniProt P16382); test: Histological distribution of peptide and IL-4R in atherosclerotic plaque tissues; assay type: in vivo, mice; settings: 50 μM final concentration in blood, circulation 15 min; IL-4R antibody staining
T1 construct: from tissue; host or cells: aorta / atherosclerotic plaque of Ldlr-/- mice
T1 sequence (P16382 26-810): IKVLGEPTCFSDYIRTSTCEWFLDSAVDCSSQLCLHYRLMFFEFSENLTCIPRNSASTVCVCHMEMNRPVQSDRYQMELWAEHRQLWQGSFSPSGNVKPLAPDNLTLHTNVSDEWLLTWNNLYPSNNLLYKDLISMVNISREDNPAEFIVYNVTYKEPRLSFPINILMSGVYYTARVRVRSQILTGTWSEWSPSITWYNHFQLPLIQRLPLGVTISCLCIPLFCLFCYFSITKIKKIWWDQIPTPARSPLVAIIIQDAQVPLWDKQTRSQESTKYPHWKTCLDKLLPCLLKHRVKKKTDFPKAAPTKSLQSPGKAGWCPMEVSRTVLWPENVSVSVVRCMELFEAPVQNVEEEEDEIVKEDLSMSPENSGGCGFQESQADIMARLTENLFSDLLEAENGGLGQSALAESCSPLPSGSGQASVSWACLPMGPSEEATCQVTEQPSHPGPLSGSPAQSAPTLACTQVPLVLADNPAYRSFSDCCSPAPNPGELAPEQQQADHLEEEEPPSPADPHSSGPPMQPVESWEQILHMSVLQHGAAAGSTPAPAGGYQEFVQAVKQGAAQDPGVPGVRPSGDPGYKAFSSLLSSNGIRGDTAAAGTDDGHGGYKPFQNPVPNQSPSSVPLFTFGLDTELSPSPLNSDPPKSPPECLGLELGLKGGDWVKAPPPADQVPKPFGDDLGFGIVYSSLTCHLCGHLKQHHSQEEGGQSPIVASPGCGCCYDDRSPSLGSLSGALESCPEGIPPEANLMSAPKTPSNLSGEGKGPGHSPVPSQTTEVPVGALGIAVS
Method: In order to ascertain a receptor that binds to the peptide of the present invention, binding of the peptide was examined for various receptors. Out of those receptors, the results for IL-4R are as follows. First, fluorescein (FITC)-conjugated peptide of the present invention at a final concentration of 50 μM was injected into the blood of experimental animals, followed by circulation for 15 min. Thereafter, the aortae were removed from animals, and a frozen section slide was prepared. Then, the tissue section was stained by reaction of the section with antibodies (1:200 dilution, BD, USA) directed against IL-4R, at room temperature for 1 hour. In order to stain the tissue nuclei, DAPI was treated on the slide which was then examined under a fluorescence microscope (Joshi et al., Cancer Research, 61:8058-8061, 2001).

[3] = target: T2, IL-4R (Homo sapiens, UniProt P24394); test: Bindability of peptide to IL-4R-expressing CHO-K1 cells (fluorescence microscopy); assay type: binding; settings: 10 μM peptide, room temperature, 1 hour
T2 sequence (P24394 26-825): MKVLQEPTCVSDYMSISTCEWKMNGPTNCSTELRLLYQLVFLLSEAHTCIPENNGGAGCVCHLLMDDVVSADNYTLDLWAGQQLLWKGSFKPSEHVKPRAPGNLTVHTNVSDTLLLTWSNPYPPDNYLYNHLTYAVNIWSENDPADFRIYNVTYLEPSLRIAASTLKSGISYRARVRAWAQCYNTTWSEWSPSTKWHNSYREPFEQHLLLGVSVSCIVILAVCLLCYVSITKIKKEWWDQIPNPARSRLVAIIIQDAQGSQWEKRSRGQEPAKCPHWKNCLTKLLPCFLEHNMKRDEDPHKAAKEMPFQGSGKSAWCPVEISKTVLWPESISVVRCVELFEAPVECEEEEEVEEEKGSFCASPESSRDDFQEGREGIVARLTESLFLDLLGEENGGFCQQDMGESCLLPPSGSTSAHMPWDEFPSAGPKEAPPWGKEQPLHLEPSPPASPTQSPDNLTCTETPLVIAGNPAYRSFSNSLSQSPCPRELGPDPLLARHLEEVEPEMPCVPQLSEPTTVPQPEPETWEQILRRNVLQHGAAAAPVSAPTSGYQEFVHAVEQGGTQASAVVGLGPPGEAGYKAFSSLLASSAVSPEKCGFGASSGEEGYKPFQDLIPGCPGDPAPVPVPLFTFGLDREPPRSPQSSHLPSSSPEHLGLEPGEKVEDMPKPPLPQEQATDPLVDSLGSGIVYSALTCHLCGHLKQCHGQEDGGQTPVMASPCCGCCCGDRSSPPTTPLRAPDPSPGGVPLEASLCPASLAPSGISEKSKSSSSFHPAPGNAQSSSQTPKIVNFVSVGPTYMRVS
Source text: In order to further confirm roles of IL-4R as the receptor for the peptide of the present invention, a plasmid capable of expressing IL-4R (Cat. #TC119877, Origene, USA) was introduced into IL-4R-deficient CHO-K1 cells according to a conventional method known in the art, followed by expression of IL-4R, and binding of IL-4R with the peptide of the present invention was examined.
The cells were stained with antibodies (1:200 dilution) directed against. IL-4R and cell nuclei were stained with DAPI, followed by fluorescence microscopic examination. As a result, a large amount of IL-4R (red fluorescence) was present on the cell surface (FIG. 6B). Next, CHO-K1 and CHO-K1/IL-4R cells were reacted with 10 μM of the FITC-C-RKRLDRNC peptide at room temperature for 1 hour.

[4] = target: T2, IL-4R; test: Bindability of peptide to HT-1376 cells with inhibited expression of IL-4R (siRNA); assay type: binding; design: HT-1376 cells that essentially show constitutive expression of IL-4R; endogenous in cells; host or cells: HT-1376
Method: Silencing RNA for IL-4R (Cat. #16708A, Ambion, USA) was introduced into HT-1376 cells that essentially show constitutive expression of IL-4R, according to a conventional method known in the art, and treated for 24 hours to thereby result in substantially no expression of IL-4R, followed by evaluation of peptide binding. More specifically, 10 nM of IL-4R silencing RNA synthesized by the manufacturer was mixed with a siPORT™ NeoFX™ lipid transfection agent (Ambion, USA), and the mixture was treated for 24 hours on HT-1376 cells grown in a 4-well chamber slide, such that IL-4R silencing RNA is incorporated into the cells. Thereafter, the culture medium was replaced with one containing 10% bovine serum and the cells were recovered for 24 hours. After staining of cells with IL-4R antibodies and nuclear DAPI staining under the same conditions as in FIG. 6, a cellular expression level of IL-4R was examined. After IL-4R staining, the FITC-CRKRLDRNC peptide was reacted with the cells under the same conditions as in FIG. 6, and a binding degree of the peptide was measured.

Substance: FITC-CRKRLDRNC ({FITC}-CRKRLDRNC; cysteine pairing not given here) [FITC-CRKRLDRNC peptide, called the peptide of the present invention in b132]
- peptide detection in cerebral tissues ([1]; 50 μM): not detected
- peptide detection in pulmonary tissues ([1]; 50 μM): not detected
- peptide found in aortic atherosclerotic plaque tissues (green fluorescence) ([1]; final blood concentration 50 μM via left ventricle): more targeted in plaque tissues
- position of peptide (green fluorescence) relative to IL-4R (red fluorescence) in atherosclerotic plaque tissues [2]: almost identically positioned
- binding to CHO-K1/IL-4R cells (IL-4R-expressing) [3]: green fluorescence due to the peptide
- binding to IL-4R-deficient CHO-K1 cells [3]: no fluorescence arising from the peptide
- binding to HT-1376/siIL-4R cells (IL-4R silencing RNA-treated) ([4]; same conditions as in FIG. 6): substantially no binding
- binding to mock silencing RNA-treated HT-1376 cells ([4]; same conditions as in FIG. 6): good bindability
- binding to HT-1376 cells (constitutive expression of IL-4R) ([4]; same conditions as in FIG. 6 (10 μM, room temperature, 1 hour)): active binding
